US20230136723A1

Experiments:
human CTLA-4 (human) = human CTLA-4 (human) (UniProt P16410); test: flow cytometry, transfected cells
human PD-L1 (human) = human PD-L1 (human) (UniProt Q9NZQ7); test: flow cytometry, transfected cells
[1] = target: human PD-L1, full-length, expressed on transfected Expi293F cells (human) (UniProt Q9NZQ7); test: flow cytometry, PD-L1-transfected Expi293 cells
[2] = target: human PD-L1, full-length, expressed on transfected Expi293F cells (human) (UniProt Q9NZQ7); test: flow cytometry, PD-L1-transfected cells; MFI over WT CD80 ECD-Fc
human CD28 (human) [3] = target: human CD28 (human) (UniProt P10747); test: flow cytometry; ratio to WT stack m3
human CD28 (human) [4] = target: human CD28 (human) (UniProt P10747); test: flow cytometry on transfected cells

Sequence of UniProt P16410 (P16410 36-223): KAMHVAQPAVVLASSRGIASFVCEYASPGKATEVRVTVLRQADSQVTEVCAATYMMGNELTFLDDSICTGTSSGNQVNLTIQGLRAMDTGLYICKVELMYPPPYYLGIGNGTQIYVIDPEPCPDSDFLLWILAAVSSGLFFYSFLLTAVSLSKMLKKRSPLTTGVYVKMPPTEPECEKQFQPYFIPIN

variant CD80 ECD-Fc H18L/R29D/Y31L/Q33H/K36G/M38I/T41A/M43R/M47T/E81V/L85R/K89N/A91T/F92P/K93V/R94L/L97R/T130A/N149S (Fc fusion)
MFI (human CTLA-4 (human)): 2180
MFI (human PD-L1 (human)): 100000

variant CD80 ECD-Fc fusion A91G/S103P
MFI [1]: 9 MFI

variant CD80 ECD-Fc fusion V20L/L70Q/A91S/I118V/T120S/T130A
MFI [1]: 9 MFI
MFI parental ratio [2]: 0.13

B1: Domain 1: CD80 I67T/L70Q/A91G/T120S / Domain 2: CD80 E88D/K89R/D90K/A91G/F92Y/K93R / Fc (Fc fusion)
chain: VIHVTKEVKEVATLSCGHNVSVEELAQTRIYWQKEKKMVLTMMSGDMNIWPEYKNRTIFDITNNLSTVIQALRPSDEGTYECVVLKYEKDGFKREHLAEVTLSVKADFPTPSISDFEIPGGGGSGGGGSGGGGSVIHVTKEVKEVATLSCGHNVSVEELAQTRIYWQKEKKMVLTMMSGDMNIWPEYKNRTIFDITNNLSIVILALRPSDEGTYECVVLKYDRKGYRREHLAEVTLSVKADFPTPSISDFEIPGGGGSGGGGSAAAEPKSSDKTHTCPPCPAPELLGGPSVFLFPPKPKDTLMISRTPEVTCVVVDVSHEDPEVKFNWYVDGVEVHNAKTKPCEEQYGSTYRCVSVLTVLHQDWLNGKEYKCKVSNKALPAPIEKTISKAKGQPREPQVYTLPPSREEMTKNQVSLTCLVKGFYPSDIAVEWESNGQPENNYKTTPPVLDSDGSFFLYSKLTVDKSRWQQGNVFSCSVMHEALHNHYTQKSLSLSPGK
WT parental MFI ratio (human CD28 (human) [3]): 0.57
MFI (human CD28 (human) [4]): 938 MFI
